Assay results taken from patent US20240390506A1 (SUZHOU FUSE BIOSCIENCES, published 2024).

Biological target: T1, human Fibroblast Activation Protein (FAP), soluble recombinant antigen (human, UniProt Q12884 26-760, biotinylated for BLI and panning (sites not given))
T1 construct: also called biotinylated FAP (Sino Biological); soluble FAP antigen
T1 sequence: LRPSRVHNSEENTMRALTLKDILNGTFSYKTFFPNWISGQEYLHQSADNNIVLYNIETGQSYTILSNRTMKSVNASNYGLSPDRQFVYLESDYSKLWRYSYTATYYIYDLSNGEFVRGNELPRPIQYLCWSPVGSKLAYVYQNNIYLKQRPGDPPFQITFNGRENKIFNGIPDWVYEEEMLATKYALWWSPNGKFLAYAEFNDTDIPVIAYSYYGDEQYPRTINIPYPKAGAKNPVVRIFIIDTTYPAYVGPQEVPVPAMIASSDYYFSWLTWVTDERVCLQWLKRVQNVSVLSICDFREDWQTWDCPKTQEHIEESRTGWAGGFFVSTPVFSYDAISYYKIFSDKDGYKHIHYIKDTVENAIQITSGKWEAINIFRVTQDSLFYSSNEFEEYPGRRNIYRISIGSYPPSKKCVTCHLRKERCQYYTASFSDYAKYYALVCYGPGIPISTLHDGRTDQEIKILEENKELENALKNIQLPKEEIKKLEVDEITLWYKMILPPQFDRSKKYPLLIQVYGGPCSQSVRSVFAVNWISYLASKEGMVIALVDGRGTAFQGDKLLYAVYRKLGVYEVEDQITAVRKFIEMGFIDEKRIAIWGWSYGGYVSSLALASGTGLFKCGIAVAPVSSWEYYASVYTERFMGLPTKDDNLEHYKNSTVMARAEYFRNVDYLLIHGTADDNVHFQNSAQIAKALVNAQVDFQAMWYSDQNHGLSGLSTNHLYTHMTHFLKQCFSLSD
Experiment: BLI (Gator), biotinylated FAP on streptavidin sensor

B1: 872-5 (antibody, V domains shown)
VH: EVQLVESGGGLVQPGGSLRLSCAASGFTFRGYIMSWVRQAPGKGLEWVSWISPEGSRTGYADSVKGRFTISRDNSKNTLYLQMNSLRAEDTAVYYCARLQYGTWFDYWGQGTLVTVSS
VL: DIQMTQSPSSLSASVGDRVTITCRASQSISSYLNWYQQKPGKAPKLLIYAASSLQSGVPSRFSGSGSGTDFTLTISSLQPEDFATYYCQQATLLLPTFGQGTKVEIKR
Q: Which results are given for B1?
A: Kd: 6.6 nM; koff: 0.0028 s⁻¹; kon: 420000 M⁻¹ s⁻¹

B2: 872-70 (antibody, V domains shown)
VH: EVQLVESGGGLVQPGGSLRLSCAASGFTFSRYSMSWVRQAPGKGLEWVSYITSTDGTTDYADSVKGRFTISRDNSKNTLYLQMNSLRAEDTAVYYCARSQYGRYYSPDYYFDYWGQGTLVTVSS
VL: DIQMTQSPSSLSASVGDRVTITCRASQSISSYLNWYQQKPGKAPKLLIYAASSLQSGVPSRFSGSGSGTDFTLTISSLQPEDFATYYCQQSRTSPYTFGQGTKVEIKR
Q: What does the source list for B2?
A: Kd: < 1 nM; kon: 110000 M⁻¹ s⁻¹

B3: 872-59 (antibody, V domains shown)
VH: EVQLVESGGGLVQPGGSLRLSCAASGFTFTSYAMSWVRQAPGKGLEWVSSIYSWYGTTSYADSVKGRFTISRDNSKNTLYLQMNSLRAEDTAVYYCARTISYSQYAYGYSFDYWGQGTLVTVSS
VL: DIQMTQSPSSLSASVGDRVTITCRASQSISSYLNWYQQKPGKAPKLLIYAASSLQSGVPSRFSGSGSGTDFTLTISSLQPEDFATYYCQQAFTSPRTFGQGTKVEIKR
Q: How did the Kd turn out when B3 was run?
A: The Kd was 15.5 nM.

Q: What about the koff of the same binder?
A: The koff was 0.0056 s⁻¹.

Q: And the kon?
A: The kon was 360000 M⁻¹ s⁻¹.
